Measured values as given in patent US7919091B2, “Lipolysis stimulated receptor (LSR) specific antibodies” (Serono Genetics Institute S.A., priority 1997, dated 2011).

Experiments:
[1] = Clearance of 125I-leptin in mice; type: in vivo
Protocol: The female control, ob/ob, or db/db mice (6-8 weeks), on an empty stomach, are anaesthetized and receive via the saphenous vein an injection of 80 ng of murine recombinant ^125I-leptin or of ^125I-β2-microglobulin (Sigma, labelled by the Iodobeads method, like leptin). Five minutes later, the animals are infused with a physiological saline solution (15 ml, at 4° C.). The tissues are collected and counted for their radioactivity (Gamma counter). In some cases, an anti-LSR antibody or a control protein are injected 30 minutes after injection of ^125I-leptin. It is important to note that the labelling of leptin with ^125I has no effect on its biological activity.

LSR = molecular target: T1, LSR (Homo sapiens, UniProt Q86X29); assay: Effect of leptin on the LSR activity of human fibroblasts HF; type: cell-based; conditions: incubation with increasing leptin, 50 μg/ml 125I-LDL, 500 μM oleate
T1 construct: GM00486A, GM007001B, GM00488C; host or cells: human skin fibroblasts, normal or HF (familial hypercholesterolemia, LDL-receptor deficient)
T1 sequence (Q86X29 1-649) 1: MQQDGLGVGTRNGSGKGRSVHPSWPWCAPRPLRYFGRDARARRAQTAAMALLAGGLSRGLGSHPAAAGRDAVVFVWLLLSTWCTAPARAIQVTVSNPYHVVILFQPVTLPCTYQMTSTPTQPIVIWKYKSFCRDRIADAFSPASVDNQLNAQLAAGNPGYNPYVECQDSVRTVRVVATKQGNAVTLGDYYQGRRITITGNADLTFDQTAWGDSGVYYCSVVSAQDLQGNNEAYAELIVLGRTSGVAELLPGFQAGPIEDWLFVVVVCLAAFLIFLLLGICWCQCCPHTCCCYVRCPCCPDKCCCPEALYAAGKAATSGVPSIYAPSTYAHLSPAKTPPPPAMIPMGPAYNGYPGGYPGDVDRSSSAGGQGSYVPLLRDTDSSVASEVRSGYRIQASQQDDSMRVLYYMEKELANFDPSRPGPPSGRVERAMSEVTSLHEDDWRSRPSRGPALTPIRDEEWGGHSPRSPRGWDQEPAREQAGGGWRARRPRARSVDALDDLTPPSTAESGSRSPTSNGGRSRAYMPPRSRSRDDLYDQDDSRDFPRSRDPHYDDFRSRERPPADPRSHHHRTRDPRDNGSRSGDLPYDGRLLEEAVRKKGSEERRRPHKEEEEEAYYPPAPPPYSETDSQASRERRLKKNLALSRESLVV
T1 sequence (Q86X29 1-649) 2: T1 sequence (Q86X29 1-649) 1
Protocol: The fibroblasts HF are incubated for 30 minutes at 37° C. with increasing concentrations of leptin, and then for 2 hours at 37° C. with 50 μg/ml of ^125I-LDL, in the presence of 500 μM oleate. The binding, internalization and degradation of the LDLs are measured as indicated in Example 1.

B1: leptin: mouse recombinant leptin with hexahistidine end, expressed in E. coli (protein, UniProt P41160 22-167, looked up)
Leptin: VPIQKVQDDTKTLIKTIVTRINDISHTQSVSAKQRVTGLDFIPGLHPILSLSKMDQTLAVYQQVLTSLPSQNVLQIANDLENLRDLLHLLAFSKSCSLPQTSGLQKPESLDGVLEASLYSTEVVALSRLQGSLQDILQQLDVSPEC
modifications: hexahistidine tag
notes: mouse recombinant leptin with hexahistidine end, expressed in E. coli
- renal capture of leptin ([1]; between control, ob/ob and db/db lines, 5 minutes after injection): no difference
- quantity of leptin selectively captured by the liver ([1]; obese (ob/ob, db/db) mice compared with control mice, 5 minutes after injection): reduced
- speed of clearance ([1]; radiolabelled recombinant leptin, obese and control mice): rapid speed of clearance
- injected dose found in liver and kidney ([1]; radiolabelled recombinant leptin, obese and control mice, after 10 minutes): 50%
- LSR activity of human fibroblasts HF (LSR): increased
